Earlier results as cited in article PMC4696766.
Where two headings read alike, the source gives them in different places. Blank lines part the entries; values can stand above or below the substance they belong to.

Tests used:
[1] = target: Histone H3 (Homo sapiens) (UniProt P68431)
[2] = target: Histone H3 (Homo sapiens) (UniProt P68431); remark: listed apart in the source
[3] = target: histone H4 H4K20me2 peptide (UniProt P62805)
[4] = target: Histone H4 (Homo sapiens) (UniProt P62805)
[5] = target: histone H3 H3K9me3 peptide (UniProt P61830)
[6] = target: Histone H3 (Homo sapiens) (UniProt P68431); remark: listed apart in the source
histone H3 1-10 = histone H3 1-10 (UniProt P61830)
[7] = target: histone H3 H3K4me3 peptide (UniProt P61830)
[8] = target: histone H3 H3K4me2 peptide (UniProt P61830)
[9] = target: Histone H3 (Homo sapiens) (UniProt P68431); remark: listed apart in the source
[10] = target: histone H3 H3K4me3 peptide (UniProt P61830); remark: listed apart in the source
[11] = target: Histone H3 (Homo sapiens) (UniProt P68431); remark: listed apart in the source
[12] = target: Histone H3 (Arabidopsis thaliana) (UniProt P59226)
[13] = target: histone H3 H3K9me2 peptide (UniProt P61830)
[14] = target: Histone H3 (Drosophila melanogaster) (UniProt P02299)
[15] = target: histone H3 H3K9me3 peptide (UniProt P61830); remark: listed apart in the source
[16] = target: histone H3 H3K4me3 peptide (UniProt P61830); remark: listed apart in the source
[17] = target: histone H4 H4K20me3 peptide (UniProt P62805)
di-γH2A.X (Homo sapiens) = di-γH2A.X (Homo sapiens) (UniProt P16104)
γH2A.X (Homo sapiens) = γH2A.X (Homo sapiens) (UniProt P16104)
[18] = target: Histone H4 (Homo sapiens) (UniProt P62805); assay: NMR
[19] = target: histone H3 H3K9me2 peptide (UniProt P61830); remark: listed apart in the source
[20] = target: Histone H3 (Arabidopsis thaliana) (UniProt P59226); remark: listed apart in the source
PIWI (Homo sapiens) = PIWI (Homo sapiens) (UniProt Q96J94)
[21] = target: Histone H3 (Homo sapiens) (UniProt P68431); remark: listed apart in the source
[22] = target: Histone H3 (Homo sapiens) (UniProt P68431); remark: listed apart in the source
[23] = target: Histone H3 (Homo sapiens) (UniProt P68431); remark: listed apart in the source
[24] = target: Histone H3 (Homo sapiens) (UniProt P68431); remark: listed apart in the source

Chain of JMJD2A tandem Tudor (O75164 897-1011): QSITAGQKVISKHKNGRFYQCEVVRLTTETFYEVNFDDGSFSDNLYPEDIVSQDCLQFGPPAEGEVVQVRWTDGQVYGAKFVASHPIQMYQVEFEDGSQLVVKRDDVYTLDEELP
Chain of MCPH1 tandem BRCT domains (Q8NEM0 640-833): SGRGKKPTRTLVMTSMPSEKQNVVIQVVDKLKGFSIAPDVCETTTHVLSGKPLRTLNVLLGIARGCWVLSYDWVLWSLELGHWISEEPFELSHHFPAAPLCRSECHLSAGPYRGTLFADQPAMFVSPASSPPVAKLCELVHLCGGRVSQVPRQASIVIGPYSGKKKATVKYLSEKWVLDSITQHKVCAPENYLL
Chain of 14-3-3ζ (P63104 whole entry): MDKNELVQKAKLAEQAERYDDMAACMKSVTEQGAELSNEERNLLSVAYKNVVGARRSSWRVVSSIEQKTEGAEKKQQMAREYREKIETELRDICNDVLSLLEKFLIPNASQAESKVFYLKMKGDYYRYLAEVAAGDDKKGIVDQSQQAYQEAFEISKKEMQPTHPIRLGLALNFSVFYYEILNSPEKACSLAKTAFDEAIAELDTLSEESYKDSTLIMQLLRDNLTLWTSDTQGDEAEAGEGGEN
Chain of UHRF1 PHD finger (Q96T88 310-366): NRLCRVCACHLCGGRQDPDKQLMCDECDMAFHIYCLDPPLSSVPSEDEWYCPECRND
Chain of G9a ankyrin repeats (Q96KQ7 649-879): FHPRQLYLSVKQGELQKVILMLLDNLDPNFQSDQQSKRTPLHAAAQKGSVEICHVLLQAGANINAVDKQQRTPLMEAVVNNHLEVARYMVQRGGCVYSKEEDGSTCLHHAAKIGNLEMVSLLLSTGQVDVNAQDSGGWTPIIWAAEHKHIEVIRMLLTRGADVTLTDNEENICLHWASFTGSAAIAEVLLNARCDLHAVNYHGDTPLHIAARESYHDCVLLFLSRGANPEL
Chain of CHD1 tandem chromodomains (O14646 272-452): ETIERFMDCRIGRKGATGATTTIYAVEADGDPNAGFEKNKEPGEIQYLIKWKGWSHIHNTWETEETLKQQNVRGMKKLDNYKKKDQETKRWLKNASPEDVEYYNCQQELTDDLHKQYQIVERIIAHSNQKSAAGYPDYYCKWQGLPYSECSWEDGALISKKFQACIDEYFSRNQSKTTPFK
Chain of HP1 chromodomain (P05205 24-82): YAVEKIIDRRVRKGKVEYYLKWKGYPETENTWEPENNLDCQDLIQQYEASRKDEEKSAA
Chain of BHC80 PHD finger (Q96BD5 whole entry): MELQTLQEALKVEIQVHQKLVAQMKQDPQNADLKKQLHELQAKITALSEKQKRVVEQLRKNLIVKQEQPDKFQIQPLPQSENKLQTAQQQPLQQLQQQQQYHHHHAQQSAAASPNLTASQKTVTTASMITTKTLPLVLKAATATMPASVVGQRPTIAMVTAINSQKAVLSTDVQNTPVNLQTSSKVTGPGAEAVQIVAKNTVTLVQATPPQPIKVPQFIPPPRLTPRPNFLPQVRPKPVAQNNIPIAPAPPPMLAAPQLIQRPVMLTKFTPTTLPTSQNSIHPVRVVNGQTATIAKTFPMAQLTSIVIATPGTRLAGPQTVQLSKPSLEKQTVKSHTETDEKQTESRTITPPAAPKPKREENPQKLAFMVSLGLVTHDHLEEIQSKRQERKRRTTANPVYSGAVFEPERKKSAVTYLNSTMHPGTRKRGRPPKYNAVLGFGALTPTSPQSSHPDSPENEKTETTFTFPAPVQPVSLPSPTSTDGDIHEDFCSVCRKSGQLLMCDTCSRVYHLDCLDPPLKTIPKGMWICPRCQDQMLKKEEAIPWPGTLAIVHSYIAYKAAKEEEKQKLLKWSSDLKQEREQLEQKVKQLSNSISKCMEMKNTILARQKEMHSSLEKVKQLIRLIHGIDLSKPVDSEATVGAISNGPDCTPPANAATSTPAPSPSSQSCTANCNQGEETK
Chain of SHH1 tandem Tudor (Q9XI47 138-244): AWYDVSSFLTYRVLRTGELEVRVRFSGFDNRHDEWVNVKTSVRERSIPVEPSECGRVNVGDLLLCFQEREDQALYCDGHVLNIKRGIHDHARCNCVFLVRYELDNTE
Chain of SHH1 tandem Tudor domains (Q9XI47 138-244): as above
Chain of UHRF1 tandem Tudor-PHD cassette (Q96T88 133-366): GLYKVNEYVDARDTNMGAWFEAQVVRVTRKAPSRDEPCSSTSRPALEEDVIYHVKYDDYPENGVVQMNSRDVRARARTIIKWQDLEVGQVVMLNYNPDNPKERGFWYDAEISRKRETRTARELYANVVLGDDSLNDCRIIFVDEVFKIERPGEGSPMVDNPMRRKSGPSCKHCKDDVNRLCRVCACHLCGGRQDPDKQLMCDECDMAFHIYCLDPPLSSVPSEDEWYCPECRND
Chain of DPF3 tandem PHD fingers (Q92784 259-366): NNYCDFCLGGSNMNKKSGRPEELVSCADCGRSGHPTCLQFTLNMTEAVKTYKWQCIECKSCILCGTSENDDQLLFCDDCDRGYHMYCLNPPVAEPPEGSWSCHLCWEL
Chain of 53BP1 tandem Tudor (Q12888 1484-1603): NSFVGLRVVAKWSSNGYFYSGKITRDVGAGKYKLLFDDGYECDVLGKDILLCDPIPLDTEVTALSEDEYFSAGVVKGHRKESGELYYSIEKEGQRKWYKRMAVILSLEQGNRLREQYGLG
Chain of 53BP1 tandem Tudor domains (Q12888 1484-1603): as above
Chain of P/CAF bromodomain (Q92831 720-830): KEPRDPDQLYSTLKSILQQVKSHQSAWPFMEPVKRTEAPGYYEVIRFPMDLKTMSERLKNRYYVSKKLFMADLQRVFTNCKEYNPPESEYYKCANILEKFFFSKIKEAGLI
Chain of SND1 extended Tudor domain (Q7KZF4 650-910): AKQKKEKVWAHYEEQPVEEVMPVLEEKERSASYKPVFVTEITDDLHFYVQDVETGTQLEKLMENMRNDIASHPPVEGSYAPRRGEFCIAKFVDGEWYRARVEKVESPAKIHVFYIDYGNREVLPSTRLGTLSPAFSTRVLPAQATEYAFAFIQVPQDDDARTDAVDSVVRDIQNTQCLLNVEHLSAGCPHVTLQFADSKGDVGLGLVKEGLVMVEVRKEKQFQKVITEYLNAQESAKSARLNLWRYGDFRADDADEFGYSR
Chain of UHRF1 tandem Tudor domain (Q96T88 133-283): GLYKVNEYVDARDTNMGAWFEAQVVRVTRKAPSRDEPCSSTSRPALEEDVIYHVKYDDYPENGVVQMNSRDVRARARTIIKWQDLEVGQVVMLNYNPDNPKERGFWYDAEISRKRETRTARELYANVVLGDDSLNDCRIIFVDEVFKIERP

Kd [12]: 6 µM
Kd [13]: 6 µM
Substance: G9a ankyrin repeats (from UniProt Q96KQ7)

Kd [14]: 2.5 µM
Kd [15]: 2.5 µM
Substance: HP1 chromodomain (from UniProt P05205)

Kd (di-γH2A.X (Homo sapiens)): 4.4 µM
Kd (γH2A.X (Homo sapiens)): 0.7 µM
Substance: MCPH1 tandem BRCT domains (from UniProt Q8NEM0)

Kd [18]: 346 µM
Substance: P/CAF bromodomain (from UniProt Q92831)

Kd [20]: 1.9 µM
Substance: SHH1 tandem Tudor domains (from UniProt Q9XI47)

Kd [21]: 1.47 µM
Kd [22]: 2.1 µM
Substance: UHRF1 PHD finger (from UniProt Q96T88)

Kd [23]: 1.75 µM
Substance: UHRF1 tandem Tudor domain (from UniProt Q96T88)

Kd [24]: 0.37 µM
Substance: UHRF1 tandem Tudor-PHD cassette (from UniProt Q96T88)

More lines, now with the values behind:

Substance: 14-3-3ζ (from UniProt P63104)
Kd [1]: 23 µM
Kd [2]: 78 µM

Substance: 53BP1 tandem Tudor (from UniProt Q12888)
Kd [3]: 19.7 µM

Substance: 53BP1 tandem Tudor domains (from UniProt Q12888)
Kd [4]: 19.7 µM

Substance: ATRX ADD (from UniProt P46100)
Kd [5]: 0.5 µM

Substance: BHC80 PHD finger (from UniProt Q96BD5)
Kd [6]: 30 µM
Kd (histone H3 1-10): 30 µM

Substance: BPTF PHD finger (from UniProt Q12830)
Kd [7]: 2.7 µM
Kd [8]: 5 µM

Substance: CHD1 tandem chromodomains (from UniProt O14646)
Kd [9]: 5 µM
Kd [10]: 5 µM

Substance: DPF3 tandem PHD fingers (from UniProt Q92784)
Kd [11]: 0.5 µM

Substance: JMJD2A tandem Tudor (from UniProt O75164)
Kd [16]: 0.5 µM
Kd [17]: 0.4 µM

Substance: SHH1 tandem Tudor (from UniProt Q9XI47)
Kd [19]: 1.9 µM

Substance: SND1 extended Tudor domain (from UniProt Q7KZF4)
Kd (PIWI (Homo sapiens)): 10 µM
